{"source": "paper PMC3166620", "key": {"[1]": {"molecular_target": "Biotinylated CHIP (UniProt Q9UNE7)", "sequence (Q9UNE7 whole entry)": "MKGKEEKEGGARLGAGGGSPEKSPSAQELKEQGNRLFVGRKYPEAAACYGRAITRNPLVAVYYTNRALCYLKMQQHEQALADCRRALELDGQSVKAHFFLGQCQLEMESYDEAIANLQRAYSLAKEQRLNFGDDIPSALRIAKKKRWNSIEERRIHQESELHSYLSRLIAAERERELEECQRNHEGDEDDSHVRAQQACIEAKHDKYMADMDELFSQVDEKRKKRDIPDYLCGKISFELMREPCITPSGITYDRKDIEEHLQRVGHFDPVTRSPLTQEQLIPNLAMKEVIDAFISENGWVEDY", "experiment": "BLI"}, "[2]": {"molecular_target": "Biotinylated Ub-CHIP (monoubiquitinated CHIP) (UniProt P0CG48)", "experiment": "BLI"}}, "data": [{"substance": "ataxin-3, normal (Q22), recombinant (from UniProt P54252 1-361) (enzyme)", "values": [{"measurement": "Kd", "setting": "[1]", "result": 2200, "unit": "nM"}, {"measurement": "Kd", "setting": "[2]", "result": 120, "unit": "nM"}]}, {"substance": "ataxin-3, polyglutamine-expanded (Q80), recombinant (from UniProt P54252 1-361) (enzyme)", "values": [{"measurement": "Kd", "setting": "[1]", "result": 390, "unit": "nM"}, {"measurement": "Kd", "setting": "[2]", "result": 750, "unit": "nM"}]}]}
